Assay results: the supplement of paper PMC7877785
± gives the uncertainty stated by the source.

Assay: self-splicing fitness, log relative to wild type (ln ratio); higher = more splicing; Tetrahymena group I intron in knt gene, E. coli kanamycin selection, DiMSum; sequences stand for … in CUCUCU…GGAGGGAAAAGUUAUCAGGCAUGCACCUGGUAGCUAGUCUUUAAACCAAUAGAUUGCAUCGGUUUAAAAGGCAAGACCGUCAAAUUGCGGGAAAGGGGUCAACAGCCGUUCAGUACCAAGUCUCAGGGGAAACUUUGAGAUGGCCUUGCAAAGGGUAUGGUAAUAAGCUGACGGACAUGGUCCUAACCACGCAGCCAAGUCCUAAGUCAACAGAUCUUCUGUUGAUAUGGAUGCAGUUCACAGACUAAAUGUCGGUCGGGGAAGAUGUAUUCUUCUCAUAAGAUAUAGUCGGACCUCUCCUUAAUGGGAGCUAGCGGAUGAAGUGAUGCAACACUGGAGCCGCUGGGAACUAAUUUGUAUGCGAAAGUAUAUUGAUUAGUUUUGGAGUACUCGUGGUCG
Procedure, shortened: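 Six replicate transformations of E. coli BL21(DE3) with a pET-22b(+) library were grown overnight at 37°C or 30°C. The library randomised all eight P1ex-region intron nucleotides, the intron lying in the knt kanamycin-resistance gene, and plates were LB agar with or without 25 μg/mL kanamycin plus 100 μg/mL carbenicillin, 50 μM IPTG and 0.2% rhamnose. Pooled colonies were amplicon-sequenced on an Illumina HiSeq 2500, and fitness is the DiMSum error-weighted combination of wild-type-normalised replicate fold changes, kanamycin versus none.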

| Sequence | self-splicing fitness (ln) (30 °C) | self-splicing fitness (ln) (37 °C) |
| --- | --- | --- |
| CCGGAGCAAUAUUACGGGUC | -3.5 ± 0.27 | -2.77 ± 0.35 |
| CCGGAGCAAUAUUACGGUCG | -1.22 ± 0.097 | -0.072 ± 0.13 |
| CCGGAGCAAUAUUACGUCUC | -3.22 ± 0.31 | -2.69 ± 0.39 |
| CCGGAGCAAUAUUACGUUGA | – | -2.61 ± 0.36 |
| CCGGAGCAAUAUUACGUUGC | -2.35 ± 0.32 | – |
| CCGUAGCAAUAUUACGACAU | -3.773 ± 0.027 | -2.94 ± 0.042 |
| CCGUAGCAAUAUUACGACUG | -0.0597 ± 0.12 | -0.95 ± 0.15 |
| CCGUAGCAAUAUUACGAGUA | – | -2.04 ± 0.22 |
| CCGUAGCAAUAUUACGAGUG | -1.07 ± 0.069 | -0.807 ± 0.083 |
| CCGUAGCAAUAUUACGAUAA | -4.17 ± 0.39 | -1.99 ± 0.28 |
| CCGUAGCAAUAUUACGCAAA | – | -2.24 ± 0.25 |
| CCGUAGCAAUAUUACGCCUG | -0.012 ± 0.085 | -0.0205 ± 0.084 |
| CCGUAGCAAUAUUACGCGGU | -3.13 ± 0.27 | -2.38 ± 0.3 |
| CCGUAGCAAUAUUACGCUCG | -1.1 ± 0.2 | -0.457 ± 0.23 |
| CCGUAGCAAUAUUACGGCAA | -3.49 ± 0.43 | -2.42 ± 0.42 |
| CCGUAGCAAUAUUACGGCAC | -3.83 ± 0.42 | -2.14 ± 0.26 |
| CCGUAGCAAUAUUACGGGAA | – | -2.04 ± 0.31 |
| CCGUAGCAAUAUUACGGGAU | -4.51 ± 0.29 | -2.53 ± 0.2 |
| CCGUAGCAAUAUUACGGGUA | -2.75 ± 0.32 | -2.67 ± 0.36 |
| CCGUAGCAAUAUUACGUGAU | -3.04 ± 0.14 | -2.43 ± 0.18 |
| CCUAAGCAAUAUUACGAAGC | -2.92 ± 0.18 | -1.92 ± 0.28 |
| CCUAAGCAAUAUUACGACAA | -3.28 ± 0.22 | -2.54 ± 0.2 |
| CCUAAGCAAUAUUACGAGAG | -2.31 ± 0.17 | -1.23 ± 0.13 |
| CCUAAGCAAUAUUACGAGCA | -2.92 ± 0.3 | -3.08 ± 0.35 |
| CCUAAGCAAUAUUACGAGGG | -3.2 ± 0.17 | -3 ± 0.35 |

| Sequence | self-splicing fitness (ln) (30 °C) | self-splicing fitness (ln) (37 °C) |
| --- | --- | --- |
| CCUAAGCAAUAUUACGAGUC | -3.77 ± 0.22 | – |
| CCUAAGCAAUAUUACGCGAU | -3.49 ± 0.24 | -2.31 ± 0.27 |
| CCUAAGCAAUAUUACGCGUA | -1.88 ± 0.25 | -2.19 ± 0.33 |
| CCUAAGCAAUAUUACGCUAC | – | -1.53 ± 0.31 |
| CCUAAGCAAUAUUACGCUCU | -2.4 ± 0.14 | -2.94 ± 0.3 |
| CCUAAGCAAUAUUACGGACC | -3.02 ± 0.49 | – |
| CCUAAGCAAUAUUACGGCGG | -3.12 ± 0.17 | -2.79 ± 0.2 |
| CCUAAGCAAUAUUACGGCUC | -3.13 ± 0.23 | -1.56 ± 0.21 |
| CCUAAGCAAUAUUACGGGUG | -2.47 ± 0.077 | -1.11 ± 0.073 |
| CCUAAGCAAUAUUACGGUCA | -3.95 ± 0.37 | -3.01 ± 0.2 |
| CCUAAGCAAUAUUACGUAGU | -1.3 ± 0.061 | -0.474 ± 0.083 |
| CCUAAGCAAUAUUACGUCAA | -2.65 ± 0.16 | -3.14 ± 0.21 |
| CCUAAGCAAUAUUACGUCAG | -1.58 ± 0.12 | -0.812 ± 0.12 |
| CCUAAGCAAUAUUACGUGUC | -3.86 ± 0.27 | -1.54 ± 0.12 |
| CCUCAGCAAUAUUACGAAGC | -2.92 ± 0.15 | -2.44 ± 0.25 |
| CCUCAGCAAUAUUACGAAUG | -1.01 ± 0.089 | -0.196 ± 0.1 |
| CCUCAGCAAUAUUACGACUU | -3.69 ± 0.42 | -2.43 ± 0.26 |
| CCUCAGCAAUAUUACGAGCU | -4.22 ± 0.37 | -1.9 ± 0.23 |
| CCUCAGCAAUAUUACGAGGG | -4.16 ± 0.26 | -2.73 ± 0.28 |
| CCUCAGCAAUAUUACGAUGG | -4.2 ± 0.19 | -2.69 ± 0.16 |
| CCUCAGCAAUAUUACGAUUA | -2.62 ± 0.22 | -2.23 ± 0.19 |
| CCUCAGCAAUAUUACGCAGU | -3.09 ± 0.22 | -1.67 ± 0.28 |
| CCUCAGCAAUAUUACGCCCU | -2.29 ± 0.24 | -2.73 ± 0.48 |
| CCUCAGCAAUAUUACGCGCA | -3.31 ± 0.27 | -2.74 ± 0.23 |
| CCUCAGCAAUAUUACGCGGG | -4.06 ± 0.28 | -2.34 ± 0.29 |
